Data published in paper PMC7516004, “RICE CENTRORADIALIS 1, a TFL1-like Gene, Responses to Drought Stress and Regulates Rice Flowering Transition”.
Numbering of substitutions follows the chain as printed.

T1: OSBZ8 (Oryza sativa, UniProt Q40645 1-360)
T1 sequence: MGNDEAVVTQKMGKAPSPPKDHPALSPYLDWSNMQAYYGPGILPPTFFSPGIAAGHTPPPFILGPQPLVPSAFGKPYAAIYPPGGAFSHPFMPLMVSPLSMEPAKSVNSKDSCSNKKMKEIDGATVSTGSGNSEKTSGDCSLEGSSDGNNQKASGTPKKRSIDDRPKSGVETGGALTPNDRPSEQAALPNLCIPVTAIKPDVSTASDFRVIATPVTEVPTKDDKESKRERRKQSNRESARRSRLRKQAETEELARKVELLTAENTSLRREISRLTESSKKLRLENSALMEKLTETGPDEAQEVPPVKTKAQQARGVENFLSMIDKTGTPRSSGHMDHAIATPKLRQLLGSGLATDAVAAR

T2: TRAB1 (Oryza sativa, UniProt Q6ZDF3 1-374)
T2 sequence: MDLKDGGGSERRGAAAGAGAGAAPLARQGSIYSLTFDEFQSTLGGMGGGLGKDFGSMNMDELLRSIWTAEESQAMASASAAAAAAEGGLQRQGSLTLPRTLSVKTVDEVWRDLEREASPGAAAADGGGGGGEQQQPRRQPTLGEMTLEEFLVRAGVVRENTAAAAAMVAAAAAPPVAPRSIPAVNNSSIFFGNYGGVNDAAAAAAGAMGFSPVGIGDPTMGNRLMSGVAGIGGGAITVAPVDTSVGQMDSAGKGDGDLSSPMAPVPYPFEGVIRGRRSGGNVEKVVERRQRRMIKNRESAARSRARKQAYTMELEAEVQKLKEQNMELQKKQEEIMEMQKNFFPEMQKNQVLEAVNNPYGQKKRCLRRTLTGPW

B1: Probe 8 (dsDNA)
DNA 1: GATAAGATTGCTCAGCAACGTAATCTTCATAGATCCACTT
DNA 2: AAGTGGATCTATGAAGATTACGTTGCTGAGCAATCTTATC
B2: Mutant-13 (dsDNA)
DNA 1: CTTCATCTGGACACTGGGCGCTTGGCAAGTTGA
DNA 2: TCAACTTGCCAAGCGCCCAGTGTCCAGATGAAG
B3: Probe 2 (dsDNA)
DNA 1: AGCTTTGAAACATTTTCCACGTTTCATGAACCAACACTCAAT
DNA 2: ATTGAGTGTTGGTTCATGAAACGTGGAAAATGTTTCAAAGCT
B4: Probe 5 (dsDNA)
DNA 1: ATAAGACAAGTGGTCAAACGTTGCAAACAAAAACTCAAAA
DNA 2: TTTTGAGTTTTTGTTTGCAACGTTTGACCACTTGTCTTAT
B5: Probe 1 (dsDNA)
DNA 1: ATCGTGTTCTTCGCCGGCACGTGGTAATGGGCAGAATCTCC
DNA 2: GGAGATTCTGCCCATTACCACGTGCCGGCGAAGAACACGAT
B6: Mutant-10 (dsDNA)
DNA 1: TCTTCATCTGGGCATTGATGTGGTGCTTGGCACTTCGA
DNA 2: TCGAAGTGCCAAGCACCACATCAATGCCCAGATGAAGA
B7: Probe 6 (dsDNA)
DNA 1: TGTGGGACGGAGGGAGTACGTCACAAAAATTATGTTACAA
DNA 2: TTGTAACATAATTTTTGTGACGTACTCCCTCCGTCCCACA
B8: Mutant-12 (dsDNA)
DNA 1: AGTCAAATTAGCCAGGCGACCAGCTAAAACCGC
DNA 2: GCGGTTTTAGCTGGTCGCCTGGCTAATTTGACT
B9: Probe 13 (dsDNA)
DNA 1: CTTCATCTGACGTGACACTGACGTGGCGCTTACGTGGCAAGTTGA
DNA 2: TCAACTTGCCACGTAAGCGCCACGTCAGTGTCACGTCAGATGAAG
B10: Probe 3 (dsDNA)
DNA 1: GTCATTTTGAGGGGCTGACGTTTGGTGGACAGCGCAGTTT
DNA 2: AAACTGCGCTGTCCACCAAACGTCAGCCCCTCAAAATGAC
B11: Mutant-14 (dsDNA)
DNA 1: AGGAAAAATGGTGGGACCCGGGCCCCACATGTCATCCT
DNA 2: AGGATGACATGTGGGGCCCGGGTCCCACCATTTTTCCT
B12: Mutant-11 (dsDNA)
DNA 1: B11 DNA 1 with G2A, G3T, T30A, C36T
DNA 2: B11 DNA 2 with G3A, A9T, C36A, C37T
B13: Probe 4 (dsDNA)
DNA 1: TTGAGTTTTTGCTTGCAACGTTTGACCACTCGTCTTATTC
DNA 2: GAATAAGACGAGTGGTCAAACGTTGCAAGCAAAAACTCAA
B14: Mutant-9 (dsDNA)
DNA 1: TGTGGTTTTGGCTGGGCGCCTGGCGAATTTGACTC
DNA 2: GAGTCAAATTCGCCAGGCGCCCAGCCAAAACCACA
B15: Probe 7 (dsDNA)
DNA 1: TCCTACATACCCTCAGCACGTAAAGCGAGAAGTTTTATCT
DNA 2: AGATAAAACTTCTCGCTTTACGTGCTGAGGGTATGTAGGA
B16: Probe 12 (dsDNA)
DNA 1: AGTCAAATTAGCCACGTAGGCGACACGTCAGCTAAAACCGC
DNA 2: GCGGTTTTAGCTGACGTGTCGCCTACGTGGCTAATTTGACT
B17: Probe 10 (dsDNA)
DNA 1: TCTTCATCTGACGTGGCATTGATGTGGTGCTTACGTGGCACTTCGA
DNA 2: TCGAAGTGCCACGTAAGCACCACATCAATGCCACGTCAGATGAAGA
B18: Probe 9 (dsDNA)
DNA 1: TGTGGTTTTGGCTGACGTGGCGCCTACGTGGCGAATTTGACTC
DNA 2: GAGTCAAATTCGCCACGTAGGCGCCACGTCAGCCAAAACCACA
B19: Probe 11 (dsDNA)
DNA 1: AATAAAAATGGTGGGACCCACGTGGGCCCCACAAGTCATTCT
DNA 2: AGAATGACTTGTGGGGCCCACGTGGGTCCCACCATTTTTATT
B20: Probe 14 (dsDNA)
DNA 1: B19 DNA 1 with A2G, T3G, A34T, T40C
DNA 2: B19 DNA 2 with A3G, T9A, A40C, T41C

Target: T1, OSBZ8
Experiment: EMSA; Chemiluminescent Nucleic Acid Detection Module Kit (Thermo) per manufacturer; binding buffer, salt, pH and temperature not stated
Conditions: protein: recombinant; tags: His (pCold vector); chain copies: 2; label: biotin

Binder | binding result
B1 | no binding
B2 | no binding
B3 | no binding
B4 | no binding
B5 | no binding
B6 | no binding
B7 | no binding
B8 | no binding
B9 | binds
B10 | no binding
B11 | no binding
B12 | no binding
B13 | no binding
B14 | no binding
B15 | no binding

Target: T2, TRAB1
Experiment: as above
Conditions: protein: recombinant; tags: His (pCold vector); chain copies: 2; label: biotin

Binder | binding result
B1 | no binding
B16 | no binding
B17 | no binding
B3 | no binding
B4 | no binding
B5 | no binding
B7 | no binding
B9 | no binding
B10 | no binding
B13 | no binding
B18 | no binding
B19 | no binding
B20 | no binding
B15 | no binding
